Data reported in article PMC4414810 (ACS chemical biology, 2015).
Where no end group is shown, it is not given here.

B1: fluorescein-labeled HalA2 leader peptide (peptide)
chain: MVNSKDLRNPEFRKAQGLQFVDEVNEKELSSLAGSGDIEGR
modifications: also: 5-FAM on short synthetic peptide ligated to introduced N-terminal Cys
B2: HalA1 leader peptide (peptide)
chain: MTNLLKEWKMPLERTHNNSNPAGDIFQELEDQDILAGIEGR

What was measured:
[1] = target: T1, HalM2 (haloduracin lanthipeptide synthetase) (Bacillus halodurans C-125); test: fluorescence polarisation
[2] = target: T1, HalM2 (haloduracin lanthipeptide …); test: fluorescence polarisation; remark: listed apart in the source

Binder | Kd [1] | IC50 [2] | Ki [2]
B1 | 3.7 ± 1.3 µM |  | 
B2 |  | 4.1 ± 1.1 µM | 4.1 ± 1.1 µM
